Measurements published in article PMC6363478.

Biological target: rat EMILIN1 C-terminus fusion protein in pRSET-A (REM) (rat)
Assay: SPR

With “rat organ of Corti CNGA3 C-terminus fusion protein in pRSET-A (RA3-C) (domain or fragment)” the Kd was 0.27 µM.
